Legend:
Assay type in all cases: physicochemical
[1] = Amyloid aggregation propensity by thioflavin-T (ThT) fluorescence
Text: (§1) The pH-sensitive, reversible amyloid aggregation of GLP-1 and related gastrointestinal hormones is an inherent and functionally critical property. They are stored as condensed amyloids at low pH before being released as monomeric, folded hormones at neutral pH. At the same time, the exact evolutionary origin[45] of Ex4 with its functional role as a salivary toxin in lizards remains unknown.[45],[46] The difference in secretion pathways is notable: GLP-1 is secreted into the bloodstream, while Ex4 is secreted into the alimentary canal. […] In terms of structure, the polyproline tail of the Ex4 Tc fold effectively shields the −^21LFIEWL^26− aggregation-prone region[40] (APR) of the facing α-helix, while the similar −^21EFIAWL^26− helical segment of GLP-1 remains unshielded. We therefore investigated the short- and long-term aggregation behavior of GLP-1, Ex4, and related Tc5b-modified variants using an amyloid-specific thioflavin-T fluorescence assay, CD spectroscopy, and atomic force microscopy (AFM) at 37 °C (Figure 5).
The exact peptide content percentage of the lyophilized peptides was determined by using a Nanodrop Lite UV–vis spectrophotometer at 280 nm. […] The exact concentration was determined by UV spectrometry using a Jasco V-660 spectrophotometer (Tokyo, Japan) at 412 nm with an extinction coefficient of 31.600 M^–1 cm^–1. […] A SpectraMax iD3 microplate reader (Molecular Devices, Sunnyvale, CA, USA) was used to control the experimental conditions (37 °C, orbital shaking at medium intensity) and to collect fluorescence data over 3 days. […] The emitted fluorescence was measured from the bottom of the microplate with medium photomultiplier tube sensitivity (PMT) settings and an integration time of 400 ms. […] The average fluorescence intensity of the peptide-free ThT sample was used as a background and subtracted from the average fluorescence intensity of the peptide-containing samples at each measurement point. The mean and standard deviation of ThT fluorescence intensities were plotted as a function of time using Origin software version 2022b and Excel software version 2020.

[2] = Long-term aggregation monitored by CD spectroscopy; conditions: pH 7.4, 1 mg mL-1, 150 mM NaCl, 37 °C, 500 rpm, two weeks
Text: as §1, with “(APR) of the facing α-helix, while the similar −^21EFIAWL^26− helical segment of GLP-1 remains unshielded.” left out
Circular dichroism (CD) experiments were performed using JASCO J-810 and J-1500 spectropolarimeters. […] Melting curves were recorded in the temperature range of 5–85 °C in 5 °C increments. […] Exact concentrations were determined by using a Nanodrop Lite UV–vis spectrophotometer at 280 nm. To determine the folded fraction (F%), the temperature-dependent spectrum collection of 65 CD curves was analyzed using Convex Constraint Analysis Plus software.[59] […]

[3] = Atomic force microscopy of aggregation samples
Method: Ten μL aliquots were taken from the ThT and CD measurement samples at the end point of the experiments, after 3 days and 2 weeks of agitation, respectively. These aliquots were then spread on freshly cleaved mica surfaces and dried overnight in a vacuum desiccator. In some cases, the spread samples were washed with pH-adjusted water to remove any salts that might crystallize during the drying process and potentially complicate the AFM micrograph recording. The surface morphology was analyzed using a FlexAFM microscope system (Nanosurf AG, Liestal, Switzerland) operating in dynamic mode, controlled by Nanosurf control software C3000 version 3.10.4. Micrographs were taken using Tap150GD-G cantilevers (BudgetSensors Ltd., Sofia, Bulgaria) with a nominal tip radius of less than 10 nm. Prescreening was run before data collection to avoid significant height variations in the surface topology. Data collection was performed at different locations within each sample. Images were recorded with a maximum window size of 10 × 10 μm at a resolution of 512 pixels/line. Gwyddion 2.62 software was used to process the AFM data and generate the images.

Substance	amyloid formation / aggregation propensity ([1]; ThT, CD and AFM, 37 °C, acidic and neutral pH, 1 and 5 mg mL–1)	amyloid formation under neutral pH conditions [2]	fibril formation by AFM ([3]; 72 h agitated acidic ThT samples, 1 mg mL–1)	diameter of twisted amyloid fibrils ([3]; AFM, acidic conditions)	thioflavin-T response under acidic conditions ([1]; ThT fluorescence, pH 4.2–4.5, 1 and 5 mg mL–1, 37 °C, orbital shaking, 3 days, triplicate)	time to amyloid fibril formation under acidic conditions ([1]; acidic conditions, concentration-dependent, 37 °C) [days]
Exendin-4 [Ex4]	did not exhibit any evidence of amyloid formation					
glucagon-like peptide-1 [GLP-1]		forms amyloid assemblies under neutral pH conditions, albeit in two weeks	reveal fibril formation	5–10 nm	exceeded the limit of detection range	≤ 1
